Data on nine molecules can be found in patent publication US9598481B2 (priority 2012, dated 2017).

For experiment [1], the system named is H5N1 A/Vietnam/1203/04 influenza A virus. It counts as in vivo, ferrets (Mustela putorius furo).
Experiment [2] deals with hemagglutinin H3 from A/HK/8/1968. It counts as binding, influenza A virus.
Experiment [3] deals with Group1 influenza A virus strains. It counts as cell-based.
Experiment [4] has as its system Group2 influenza A virus strains. The experiment is classed as cell-based.
For experiment [5], the system named is hemagglutinin H1 from A/NWS/1933. It counts as binding, influenza A virus.
The subject of experiment [6] is H3N2 A/Port Chalmers/1/1973. It counts as cell-based, influenza A virus. The settings on record: read-out: in vitro IC50.
For experiment [7], the system named is H3N2 A/Port Chalmers/1/1973. Further details: species or system DBA/2J mice. Conditions: mouse, in vivo.
In experiment [8] the test system is HIV pseudotype virus bearing hemagglutinin H5 from H5N1/Vietnam/1203/2004. It counts as cell-based.
Another experiment has as its system H3N2 A/Hong Kong/1/1968. Further details: species or system DBA/2J mice. The settings on record: mouse.
Experiment [9] deals with H3N2 A/Aichi/2/1968. The arrangement: species or system DBA/2J mice. Conditions: mouse, in vivo.
Experiment [10] has as its system H3N2 A/Aichi/2/1968. The experiment is classed as cell-based, influenza A virus. Conditions: read-out: in vitro IC50.
The mark [11] stands for this setting: read-out: EC50 competition with biotinylated mAb 39.29.

Positions count from the first letter of the chain named. Values joined by “and” are separate entries in the source; they are usually repeats but may differ in a detail not shown here. Identical values can stand only once.

In general, mortality refers to the share of the test organisms that died. The low end stands for a weak lethal effect, the high end for a strong lethal effect. Usually EC50 stands for the concentration needed to bring the measured effect to its halfway point. As usually defined, the IC50 is the point on the concentration scale where inhibition reaches its midpoint.

`CCOC(=O)C1=C[C@@H](OC(CC)CC)[C@H](NC(C)=O)[C@@H](N)C1` [oseltamivir, oseltamivir phosphate, reference compound] returned a mortality in experiment [1] (twice-daily oral 25 mg/kg for 5 days, irrespective of treatment initiation time (48 or 72 hours)) of 50%.

B1: mAb 36.89: anti-hemagglutinin monoclonal antibody; VL SEQ ID NO:162, VH SEQ ID NO:160 (antibody, V domains shown)
VH: QVQLVQSGAELKRPGASVKVSCKTSGYSFNNYGINWVRQAPGQGLEWMGWISAYTGNTHYAKNFEGRVTLTTDTSTSTAYMEVRSLRSDDSAVYFCARAMIQGVVTLYLRPGDYWGQGTLVTVSS
VL: DIVMTQSPSTLSASVGDRVTITCRASQSIGNWLAWYQQKPGKAPKLLIYKVSTLESGVPSRFSGSGSGTEFTLTINSLQPDDFATYYCQRYTSNSQGFTFGQGTKLEIK
On to B1, for which the “competition for binding with mAb 39.29 on Group2 H3 hemagglutinin stalk epitope” value in [2] is reported as “compete for binding”. Besides, in experiment [3], the “in vitro neutralization of Group1 influenza A virus panel” value is “not able to neutralize any Group1 influenza A virus isolate tested”. The “in vitro neutralization of Group2 influenza A virus panel” value in [4] is reported as “able to neutralize the entire Group2 influenza A virus panel examined”. Moreover, the “competition for binding of mAb 39.29 on Group1 H1 hemagglutinin stalk” value (“competition … on Group1 H1 hemagglutinin stalk” below) in experiment [5] is “do not compete for binding”.

B2: mAb 81.39 SVSH-NYP: anti-hemagglutinin monoclonal antibody; VL SEQ ID NO:117, VH SEQ ID NO:115 (antibody, V domains shown)
VH: EVQLVESGGGVVQPGRSLRLSCAASGFAFHNRAMHWVRQAPGKGLEWVALIYFDGSKQYYADSVKGRFTISRDNSKNTVFLQMNSLRPEDTAVYYCAVPGPIFGIFPPWSYFDHWGQGILVTVSS
VL: EIVLTQSPATLSVSPGERATLSCRASQSVSHNLAWYQQKPGQAPRLLVYSASTRATGIPARFSGSGSGTEFTLAISSLQSEDFAVYYCQHYTNYPPRLTFGGGSKVEIK
B2: the “in vitro neutralization of Group1 influenza A virus panel” value in experiment [3] is given as “effective at the in vitro neutralization of all influenza A virus strains tested”. Also, the “in vitro neutralization of Group2 influenza A virus panel” value in experiment [4] is given as “effective at the in vitro neutralization of all influenza A virus strains tested”.

B3: mAb 81.39: anti-hemagglutinin monoclonal antibody 81.39, variant not specified in the competition ELISA (antibody, V domains shown)
VH: B2 VH
VL: B2 VL with Y94W
In the case of B3, in experiment [2], the “competition for binding with mAb 39.29 on Group2 H3 hemagglutinin stalk epitope” value was “compete for binding”. Moreover, the values for the EC50 in experiment [2] (setting [11]) and in [5] (setting [11]) were 4.21 nM and 2.15 nM, respectively. Further, the “competition … on Group1 H1 hemagglutinin stalk” value in [5] is given as “compete for binding”.

B4: mAb 81.39 B1C1: anti-hemagglutinin monoclonal antibody; VL SEQ ID NO:113, VH SEQ ID NO:111 (antibody, V domains shown)
VH: B2 VH with E1Q
VL: B2 VL with S30D, H31S, Y94W
Regarding B4, the survival in [1] (in vivo, iv, 25 mg/kg) is 100% and 80%.

B5: mAb 39.29 NCv1: anti-hemagglutinin monoclonal antibody; VL SEQ ID NO:144, VH SEQ ID NO:142 (antibody, V domains shown)
VH: QVQLVESGGGVVQPGKSPRLSCAASGPTFSSYAVHWVRQAPGKGLEWVTLISYDGANQYYADSVKGRFTISRDNSKNTVYLQMNSLRPEDTAVYYCAVPGPVFGIFPPWSYFDNWGQGILVTVSS
VL: EIVLTQSPATLSVSPGERATLSCRASQVISHNLAWYQQKPGQAPRLLIYGASTRASGIPARFSGSGSGTDYTLTITSLQPEDFAVYYCQHYSNWPPRLTFGGGTKVEIK
As to B5, the values for the IC50 (in experiment [6]; with H3N2 A/Aichi/2/1968 [10]) were 2.9 nM and 35 nM, respectively. The “efficacy at all tested doses” value (in experiment [7]; in the experiment with H3N2 A/Aichi/2/1968 [9]) was “very efficacious” each time. Besides, the “in vitro neutralization of pseudotype virus expressing hemagglutinin H5” value in experiment [8] is listed as “dose-dependent in vitro neutralization”. Moreover, the “mice protected (survival)” value with H3N2 A/Hong Kong/1/1968 (in vivo) is 87.5% and 75%. The “minimum efficacious dose in vivo” value with H3N2 A/Hong Kong/1/1968 (iv) was found to be 15 mg/kg.

B6: mAb9.01F3: phage-display derived anti-hemagglutinin monoclonal antibody; VL SEQ ID NO:166, VH SEQ ID NO:164 (antibody, V domains shown)
VH: QVQLVQSGAEVKQPGASVKVSCKASGYTFNAYYIHWVRQAPGQGLEWMGWINPNFGGTHYARKFQGRVTMTRDASINTAYMELDRLISDDTAVYYCVRWRAAAVIMDQFYKMDVWGQGTLVTVSS
VL: SSELTQPPSASGTPGQRVTISCSGSTSNIGYNPVSWYQQVPGTAPKLLIYSNTERPSGVPDRFSGSKSGTSASLAISGLQSEDEADYYCAAWDDTLNGPVFGGGTKVTVL
For the molecule B6, in experiment [2], the “competition for binding with mAb 39.29 on Group2 H3 hemagglutinin stalk epitope” value was “compete for binding”. In addition, the “in vitro neutralization of Group1 influenza A virus panel” value in [3] is listed as “not able to neutralize any Group1 influenza A virus isolate tested”. Further, the “in vitro neutralization of Group2 influenza A virus panel” value in experiment [4] is “able to neutralize the entire Group2 influenza A virus panel examined”. In addition, the “competition … on Group1 H1 hemagglutinin stalk” value in [5] was “do not compete for binding”.

B7: mAb23.06C2: phage-display derived anti-hemagglutinin monoclonal antibody; VL SEQ ID NO:170, VH SEQ ID NO:168 (antibody, V domains shown)
VH: QVQLQESGPGLVKPSETLSLTCTVSGGLIGTGSYYWGWIRQTPGKGMEWIGSISYSGSTYYHPSLKSRVTISDDTSKNQLFLKLRSVTAADTAQYYCARYNWGIRYFDFWGRGTLVTVSS
VL: DIQLTQSPLSPPVTLGQPASISCRSSQSLLYTDGFTYLSWYHQRPGQSPRRLIYKISNRDSGVPDRFSGSGSGTDFTLKISRVEAEDVGVYYCMQATHWPLTFGEGTKVEIK
Turning to B7, in experiment [2], the “competition for binding with mAb 39.29 on Group2 H3 hemagglutinin stalk epitope” value is given as “compete for binding”. The “in vitro neutralization of Group1 influenza A virus panel” value in experiment [3] is “not able to neutralize any Group1 influenza A virus isolate tested”. For the same molecule, the “in vitro neutralization of Group2 influenza A virus panel” value in experiment [4] was “able to neutralize the entire Group2 influenza A virus panel examined”. In addition, the “competition … on Group1 H1 hemagglutinin stalk” value in [5] is “do not compete for binding”.

B8: mAb 39.18 B11: anti-hemagglutinin monoclonal antibody; VL SEQ ID NO:156, VH SEQ ID NO:154 (antibody, V domains shown)
VH: EVQLVQSGAEVKKPGSSMKVSCKASGSIFSNYGISWVRQAPGQGLEWMGGIIPIFGAANYAQKFQGRVTITADESTSTVYMEVRSLRSEDTAVYYCARRQQLYKGYYHHWGQGTLVTVSS
VL: EIVLTQSPATLSVSPGERVTLSCRASQSVANNLAWYQQKPGQSPRLLIYGASTRDTGIPARFSGSGSGTEFTLTISSLQSEDFAVYYCQQYNNWPPMYTFGQGTKLEIK
As to B8, in experiment [3], the “in vitro neutralization of Group1 influenza A virus panel” value is listed as “effective at in vitro neutralization of the entire Group1 influenza A virus panel examined”. In addition, the “in vitro neutralization of Group2 influenza A virus panel” value in [4] is “not able to neutralize Group2 influenza A virus strains”.
